2 molecules from patent US9605038B2, “Fusion peptide comprising dhFas-1 domain and MMP substrate and use thereof for preventing and treating rheumatoid arthritis” (Kyungpook National University Industry-Academic Cooperation …, priority 2010, dated 2017) can be followed below.

One experiment concerns the target T1, MMP2 (Homo sapiens, UniProt P08253).
T1 sequence (P08253 110-660): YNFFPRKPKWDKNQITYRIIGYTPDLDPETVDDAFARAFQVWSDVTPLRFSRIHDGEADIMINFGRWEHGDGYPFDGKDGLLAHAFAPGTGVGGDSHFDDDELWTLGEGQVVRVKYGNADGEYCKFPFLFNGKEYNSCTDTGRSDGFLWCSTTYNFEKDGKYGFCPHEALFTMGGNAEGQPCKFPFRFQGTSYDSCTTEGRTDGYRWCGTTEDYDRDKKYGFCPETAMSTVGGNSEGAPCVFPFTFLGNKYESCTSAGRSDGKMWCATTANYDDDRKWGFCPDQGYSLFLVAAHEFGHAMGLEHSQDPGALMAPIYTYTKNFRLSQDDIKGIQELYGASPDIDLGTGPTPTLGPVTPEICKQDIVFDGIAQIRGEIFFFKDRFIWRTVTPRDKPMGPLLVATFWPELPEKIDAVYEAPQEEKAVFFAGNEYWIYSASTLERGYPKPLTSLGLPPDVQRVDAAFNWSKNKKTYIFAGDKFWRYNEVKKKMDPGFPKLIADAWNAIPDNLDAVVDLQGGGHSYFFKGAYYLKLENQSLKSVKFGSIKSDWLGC
The experiment is described as follows: Enzymatic digestion test, MMP2. Type of experiment: biochemical. The settings on record: 3 ug peptide, MMP2 100, 200, 800 ng, 37° C. 4 hours. As to the method: (§1) 3 ug of synthesized mdhFas-1-MMPsubstrate structure modified protein, together with MMP1 (5 ng, 10 ng and 50 ng), MMP2 (100 ng, 200 ng and 800 ng), MMP3 (10 ng, 50 ng and 100 ng), cathepsin D (5 ng, 10 ng and 50 ng), cathepsin L (100 ng, 200 ng and 800 ng), and cathepsin K (10 ng, 50 ng and 100 ng), was mixed with enzyme buffer (150 mM NaCl, 5 mM. CaCl2, 20 mM Tris-HCl pH7.5), and reacted at 37° C. for 4 hours. The resultant product was subjected to electrophoresis through 15% polyacrylamide gel, transferred to a Nitrocellulose Membrane (Schleicher & Schuell), blocked at room temperature for 1 hour with TBST solution containing 3% BSA (20 mmole/L Tris-HCl, 137 mmole//l NaCl, 0.1% Tween-20), washed TBST solution three times (each for 10 minutes), and reacted with primary antibody (anti-Histidine or anti-Bigh3) for 1 hour. The resultant product was washed with TBST solution three times (each for 10 minutes), reacted with a secondary antibody conjugated to horseradish peroxidase (HRP) for 1 hour, washed TBST solution three times (each for 10 minutes), and visualized by ECL (Amersham Biosciences, UK) so as to detect the change in the amount of mdhFas-1-MMPsubstrate-RGD structural peptide.

A further experiment deals with MMP3 (Homo sapiens, UniProt P08254). The experiment is described as follows: Enzymatic digestion test, MMP3. To be noted: 3 ug peptide, MMP3 10, 50, 100 ng, 37° C. 4 hours. The experiment is classed as biochemical. As to the method:
as §1

Experiment [1] has as its target T2, MMP-1 secreted from a human Synovial membrane cell (Homo sapiens, UniProt P03956).
T2 construct: MFK24 peptide cleaved by MMP-1 secreted from a human Synovial membrane cell; endogenous in cells; host or cells: human fibroblast-like synoviocytes (human synovial membrane cell line) stimulated with 0.1 ng/ml IL-1β
T2 sequence (P03956 100-469): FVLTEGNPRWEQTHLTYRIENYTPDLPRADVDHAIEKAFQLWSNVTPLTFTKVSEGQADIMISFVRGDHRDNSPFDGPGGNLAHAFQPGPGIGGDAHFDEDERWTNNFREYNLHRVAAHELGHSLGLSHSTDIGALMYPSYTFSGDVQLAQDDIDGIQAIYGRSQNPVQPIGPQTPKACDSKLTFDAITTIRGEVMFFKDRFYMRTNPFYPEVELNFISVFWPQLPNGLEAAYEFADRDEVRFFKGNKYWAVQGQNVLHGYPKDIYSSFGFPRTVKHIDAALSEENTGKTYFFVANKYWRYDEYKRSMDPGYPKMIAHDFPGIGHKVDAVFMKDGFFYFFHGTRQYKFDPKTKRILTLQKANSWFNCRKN
The experiment is described as follows: Culture analysis of enzymatic digestion in IL-1β stimulated human FLS. Type of experiment: cell-based. The settings on record: 1 uM peptide, 3 and 6 hours, IL-1β 0.1 ng/ml. As to the method: In order to determine if MFK24 is well adhered to cells and in actuality cleaved by MMP-1, human FLS (fibroblast-like synovicyte) was treated with IL-1β so as to amplify the expression of MMP-1. Then, MFK24 was added in a culture medium and cultured.
In a culture medium of DMEM+10% FBS (fetal bovine serum)+2% penicillin, streptomycin, a human Synovial membrane cell line was cultured for 2 days, added with 0.1 ng/ml IL-1β, and stimulated for 24 hours. The cell line was treated with mdhFas-1-MMPsubstrate-RGD structural peptide (1 uM), and stimulated for 3 hours and 6 hours. Then, by using an anti-βig-h3 antibody recognizing mdhfas-1, and an anti-histidine antibody recognizing C-terminal histidine-tag, the amount of peptide was determined.

For experiment [2], the system named is TNF-a, RANKL, IL-1β, CCL-2, MMP-1, MMP-3, IL-6, VCAM-1. The experiment is described as follows: Semiquantitative reverse transcription PCR of inflammatory mediators in CIA mouse foot tissue. The experiment is classed as in vivo. To be noted: CIA mouse articulation tissue, FIG. 21. As to the method: The distribution of inflammation in the foot tissue may be somewhat differently observed according to the regions, and its quantitative research is difficult. Thus, in the hind leg of a mouse CIA model treated with MFK24, the change in inflammatory mediators according to the onset of arthritis was measured by a semiquantitative reverse transcription PCR method using a Taqman probe, as described below.
From a mouse CIA model, a foot tissue was separated, and its skin was removed. The remaining tissue was grinded by a tissue homogenizer, and an extraction reagent (Easy-spim™, Intron) was used to extract all RNAs. They were quantified, and for 7 μg of RNA, a reverse transcriptase reaction was carried out by using AMV reverse transcriptase (Roche, 0.5 ul), oligo dT (Roche, 1 ul), and 10 mM dNTP (Takara, 2 ul) RNase inhibitor (Roche, 0.1 ul). For TNF-a, RANKL, IL-1β, CCL-2, MMP-1, MMP-3, IL-6, VCAM-1 and 18S RNA of a mouse, semiquantitative PCR was performed by using primers (Bioneer, Daejeon) and a Taqman probe (Roche, Germany) in LC480 (Roche, Germany), so as to determine the number of transcripts. Quantitative analysis of the transcripts was performed through comparison with 18S RNA transcripts. The primer pairs for the semiquantitative PCR are noted in [table8].

A further experiment deals with ICAM-1 and RANKL. The experiment is described as follows: Immunoblot of ICAM-1 and RANKL in CIA mouse model. Type of experiment: in vivo. A general note: Immunoblotting shows a protein as a band on a membrane.

Sequence of MMP3 (P08254 100-477, species assumed): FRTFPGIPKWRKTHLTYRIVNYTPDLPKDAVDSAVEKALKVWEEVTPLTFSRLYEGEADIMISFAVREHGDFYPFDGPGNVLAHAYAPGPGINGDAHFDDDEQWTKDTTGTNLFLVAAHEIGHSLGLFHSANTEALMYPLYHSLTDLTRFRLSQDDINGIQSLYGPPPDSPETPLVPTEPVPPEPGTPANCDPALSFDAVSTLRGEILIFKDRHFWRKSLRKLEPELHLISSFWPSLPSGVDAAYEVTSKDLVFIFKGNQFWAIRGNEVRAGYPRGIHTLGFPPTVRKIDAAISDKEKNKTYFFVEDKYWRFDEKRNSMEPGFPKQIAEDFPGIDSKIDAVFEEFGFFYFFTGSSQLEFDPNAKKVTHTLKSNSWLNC

B1: MFK23: fusion peptide having sequential links of mdhFas-1, MMP2 substrate GPLGVRG (SEQ ID NO: 5), and QERGDSLA (SEQ ID NO: 10) (protein)
chain: QAMPPEELNKLLANAKELTNILKYHIGDEILVSGGIGALVRLKSLQGDKLEVSSKNNVVSVNKEPVAETDIMEFGPLGVRGVDGQERGDSLAGLE
modifications: MFK23
On to B1, for which the “cleavage through treatment with MMP-2” value with MMP2 is recorded as “concentration-dependently cleaved”. For the same molecule, in the experiment with MMP3, the “cleavage through treatment with MMP-3” value was “not cleaved”.

B2: MFK24: fusion peptide having sequential links of mdhFas-1, MMP1 substrate GPQGIAG (SEQ ID NO: 6), and QERGDSLA (SEQ ID NO: 10) (protein)
chain: QAMPPEELNKLLANAKELTNILKYHIGDEILVSGGIGALVRLKSLQGDKLEVSSKNNVVSVNKEPVAETDIMEFGPQGIAGVDGQERGDSLAGLE
modifications: MFK24
On to B2, for which, in the experiment with MMP2, the “cleavage through treatment with MMP-2” value is reported as “not cleaved”. For the same molecule, in the experiment with MMP3, the “cleavage through treatment with MMP-3” value is reported as “not cleaved”. Further, the “cleavage in FLS culture (anti-histidine vs anti-βig-h3)” value in experiment [1] is reported as “cleaved by MMP-1 secreted from a Synovial membrane cell”. Further, the “number of transcripts of inflammatory mediators compared to arthritis control group” value in experiment [2] was “significantly reduced”. Besides, the “efficacy on ICAM-1 and RANKL expression at low dose” value in the experiment with ICAM-1 and RANKL (0.1 mg/kg) is “the high efficacy was maintained”. For the same molecule, in the experiment with ICAM-1 and RANKL (according to doses, FIG. 22), the “expression of ICAM-1 and RANKL in the inflammatory region” value was “reduced”.
